Data published in patent US20240402174A1 (Takeda / Millennium, published 2024).

T1: GII.7 VLP (norovirus Hu/GII.7/NSW088L/2007/AUS)
T1 construct: also called Hu/GII.7/NSW088L/2007/AUS
T1 chain: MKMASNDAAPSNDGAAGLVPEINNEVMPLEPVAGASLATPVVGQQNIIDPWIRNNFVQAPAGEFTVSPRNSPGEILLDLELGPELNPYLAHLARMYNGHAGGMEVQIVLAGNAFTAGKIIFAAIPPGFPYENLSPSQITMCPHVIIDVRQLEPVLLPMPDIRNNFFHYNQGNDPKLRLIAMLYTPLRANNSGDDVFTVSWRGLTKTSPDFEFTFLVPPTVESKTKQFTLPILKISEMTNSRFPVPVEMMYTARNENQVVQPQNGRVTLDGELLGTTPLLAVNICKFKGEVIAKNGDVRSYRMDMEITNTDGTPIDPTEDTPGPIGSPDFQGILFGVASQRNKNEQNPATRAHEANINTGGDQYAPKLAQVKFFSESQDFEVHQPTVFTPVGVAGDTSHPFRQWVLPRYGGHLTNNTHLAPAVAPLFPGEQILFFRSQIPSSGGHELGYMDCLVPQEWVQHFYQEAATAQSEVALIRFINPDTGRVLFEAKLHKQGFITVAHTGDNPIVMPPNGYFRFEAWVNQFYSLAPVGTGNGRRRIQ

T2: GII.4/Consensus VLP (norovirus GII.4 consensus sequence, UniProt P54635 1-539)
T2 chain: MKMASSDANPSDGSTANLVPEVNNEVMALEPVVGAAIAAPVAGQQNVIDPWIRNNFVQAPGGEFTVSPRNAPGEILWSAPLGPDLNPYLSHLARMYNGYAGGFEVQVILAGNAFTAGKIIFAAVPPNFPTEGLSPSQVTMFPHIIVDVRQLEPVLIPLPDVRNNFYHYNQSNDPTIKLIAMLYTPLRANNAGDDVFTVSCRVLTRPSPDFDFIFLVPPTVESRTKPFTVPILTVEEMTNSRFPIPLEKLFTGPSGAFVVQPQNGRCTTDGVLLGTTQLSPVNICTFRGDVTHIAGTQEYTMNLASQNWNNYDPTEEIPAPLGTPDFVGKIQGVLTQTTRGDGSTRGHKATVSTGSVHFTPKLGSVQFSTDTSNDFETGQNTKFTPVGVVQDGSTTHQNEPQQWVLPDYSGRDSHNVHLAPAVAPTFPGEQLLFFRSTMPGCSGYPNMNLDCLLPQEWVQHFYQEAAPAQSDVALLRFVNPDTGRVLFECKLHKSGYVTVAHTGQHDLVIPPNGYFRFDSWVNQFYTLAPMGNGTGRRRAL

T3: GII.12 VLP (norovirus Hu/GII.12 strain E5152)
T3 construct: also called Hu/GII.12 strain E5152
T3 chain: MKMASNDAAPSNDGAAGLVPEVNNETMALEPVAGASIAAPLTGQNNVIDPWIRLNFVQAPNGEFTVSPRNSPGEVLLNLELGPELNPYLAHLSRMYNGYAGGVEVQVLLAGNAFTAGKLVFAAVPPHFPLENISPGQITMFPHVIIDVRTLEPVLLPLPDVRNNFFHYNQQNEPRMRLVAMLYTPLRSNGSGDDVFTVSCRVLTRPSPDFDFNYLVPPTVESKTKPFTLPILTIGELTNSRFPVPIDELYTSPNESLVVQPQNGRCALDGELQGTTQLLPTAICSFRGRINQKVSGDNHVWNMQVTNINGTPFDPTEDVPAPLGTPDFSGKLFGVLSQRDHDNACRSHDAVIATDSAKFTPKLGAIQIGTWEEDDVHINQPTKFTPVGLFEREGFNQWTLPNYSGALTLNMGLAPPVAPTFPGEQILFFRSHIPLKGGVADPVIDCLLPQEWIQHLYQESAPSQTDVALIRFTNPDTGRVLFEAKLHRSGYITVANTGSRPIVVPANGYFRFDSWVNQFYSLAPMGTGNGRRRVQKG

T4: GII.4/Den Haag VLP (norovirus Hu/GII.4/DenHaag89/2006/NL, UniProt P54635 1-539)
T4 construct: also called Hu/GII.4/DenHaag89/2006/NL
T4 chain: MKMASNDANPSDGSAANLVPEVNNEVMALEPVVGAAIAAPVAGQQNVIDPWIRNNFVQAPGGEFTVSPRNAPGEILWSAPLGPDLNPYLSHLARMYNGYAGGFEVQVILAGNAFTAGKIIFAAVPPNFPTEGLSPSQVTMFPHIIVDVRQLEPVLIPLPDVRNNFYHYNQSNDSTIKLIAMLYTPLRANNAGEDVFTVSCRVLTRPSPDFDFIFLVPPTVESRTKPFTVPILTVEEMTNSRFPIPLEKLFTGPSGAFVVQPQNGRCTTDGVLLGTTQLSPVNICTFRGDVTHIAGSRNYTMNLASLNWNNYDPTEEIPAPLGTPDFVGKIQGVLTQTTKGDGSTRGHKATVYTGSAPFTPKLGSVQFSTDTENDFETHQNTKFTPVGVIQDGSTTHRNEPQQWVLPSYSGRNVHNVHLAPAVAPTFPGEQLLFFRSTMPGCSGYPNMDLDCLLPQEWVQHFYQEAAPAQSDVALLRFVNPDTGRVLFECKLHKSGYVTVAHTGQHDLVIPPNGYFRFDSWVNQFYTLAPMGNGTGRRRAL

T5: GII.17/2015 VLP (norovirus Hu/GII.17/HKG/2015/CUHK-NS-513)
T5 construct: also called Hu/GII.17/HKG/2015/CUHK-NS-513
T5 chain: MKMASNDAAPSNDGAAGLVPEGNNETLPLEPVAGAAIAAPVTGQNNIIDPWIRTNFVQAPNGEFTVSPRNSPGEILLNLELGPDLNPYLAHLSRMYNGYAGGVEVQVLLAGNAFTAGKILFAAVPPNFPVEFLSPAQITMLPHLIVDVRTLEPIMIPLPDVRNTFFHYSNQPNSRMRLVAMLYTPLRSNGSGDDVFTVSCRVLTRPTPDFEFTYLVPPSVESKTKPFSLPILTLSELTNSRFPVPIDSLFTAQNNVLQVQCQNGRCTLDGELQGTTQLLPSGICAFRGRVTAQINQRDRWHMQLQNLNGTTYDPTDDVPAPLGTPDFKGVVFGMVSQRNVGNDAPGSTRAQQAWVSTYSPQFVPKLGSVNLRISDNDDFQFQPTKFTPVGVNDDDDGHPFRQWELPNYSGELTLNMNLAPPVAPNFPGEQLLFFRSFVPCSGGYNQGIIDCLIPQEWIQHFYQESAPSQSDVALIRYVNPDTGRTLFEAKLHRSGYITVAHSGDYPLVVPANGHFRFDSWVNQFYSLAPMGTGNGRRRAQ

B1: human mAb 1227 (antibody, V domains shown)
VH: QVQLVQSGGGMVQPGGSLSLSCAASGFTLSNYAMTWVRQAPGKGLEWVSSIGGSGGTTYYADSVKGRFTISRDSSMNTLYLQMSNLRAGDTAVYYCAKDKTRTLRLGYSGMDVWGQGTTVTVSS
VL: DIRLTQSPSSLSASVGDRVTITCRASQSISSYLNWYQQKPGKAPDLLIYGASSLQSGVPSRFSGSGSGTDFTLTISSLQPEDFGNYYCQQSFSTPRTFGQGTKVEL
notes: also called A1227
B2: human mAb 1431 (antibody, V domains shown)
VH: QVQLVQSGGGLVQPGGSLRLSCAASGFAFSNHGMHWVRQAPGKGLEWLSYISGSTGAIHYANSVKGRFTISRDNARNSLDLQMNSLGDEDTAVYYCARDGPRPDGTGYAGPSNDYWGQGTLVSVSS
VL: EIVLTQSPASLSLSPGERATLSCKASRSISIYLAWYQQKPGQAPRLLIYDASYRAIGIPARFSGSGSGTDFTLTISNLEPEDFAVYYCQHRSSWPALTFGGGTKVEI
notes: also called A1431

Columns and labels:
Test in all cases: multiplex microsphere immunoassay
[1] = target: T1, GII.7 VLP
[2] = target: T2, GII.4/Consensus VLP
[3] = target: T3, GII.12 VLP
[4] = target: T4, GII.4/Den Haag VLP
[5] = target: T5, GII.17/2015 VLP

Binder	EC50 [1]	EC50 [2]	EC50 [3]	EC50 [4]	EC50 [5]	binding result [1]	binding result [3]	binding result [5]
B1	0.009 µg/mL	0.216 µg/mL	0.026 µg/mL	0.014 µg/mL	0.012 µg/mL	–	–	–
B2	–	0.07 µg/mL	–	0.024 µg/mL	–	no binding	no binding	no binding
